B1: UBE2D1 (enzyme)
chain: not shown
B2: UBE2N (enzyme, human, UniProt P61088 1-152, looked up)
chain: MAGLPRRIIKETQRLLAEPVPGIKAEPDESNARYFHVVIAGPQDSPFEGGTFKLELFLPEEYPMAAPKVRFMTKIYHPNVDKLGRICLDILKDKWSPALQIRTVLLSIQALLSAPNPDDPLANDVAEQWKTNEAQAIETARAWTRLYAMNNI
B3: UBE2E1 (enzyme, human, UniProt P51965 1-193, looked up)
chain: MSDDDSRASTSSSSSSSSNQQTEKETNTPKKKESKVSMSKNSKLLSTSAKRIQKELADITLDPPPNCSAGPKGDNIYEWRSTILGPPGSVYEGGVFFLDITFTPEYPFKPPKVTFRTRIYHCNINSQGVICLDILKDNWSPALTISKVLLSICSLLTDCNPADPLVGSIATQYMTNRAEHDRMARQWTKRYAT

Experiments:
[1] = target: OTUB1 (C91S), catalytically inactive mutant (UniProt Q96FW1 1-271, C91S); assay: ITC
OTUB1 wild-type = OTUB1 wild-type (UniProt Q96FW1 1-271); assay: ITC
Sequence of OTUB1 wild-type (Q96FW1 whole entry): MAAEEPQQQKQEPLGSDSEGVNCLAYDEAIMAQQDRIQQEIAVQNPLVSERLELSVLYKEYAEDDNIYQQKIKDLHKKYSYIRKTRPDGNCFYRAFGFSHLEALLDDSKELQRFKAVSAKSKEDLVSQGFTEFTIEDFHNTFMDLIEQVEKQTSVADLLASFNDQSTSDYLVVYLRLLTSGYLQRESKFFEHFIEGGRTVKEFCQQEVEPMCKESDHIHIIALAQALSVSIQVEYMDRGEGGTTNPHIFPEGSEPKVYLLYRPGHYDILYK

Sequence of OTUB1 (C91S), catalytically inactive mutant (Q96FW1 whole entry C91S): as the sequence (Q96FW1 whole entry) above, with C91S counted along it

| Binder | binding result [1] | binding result (OTUB1 wild-type) | Kd [1] [µM] |
| --- | --- | --- | --- |
| B1 | binds | binds |  |
| B2 |  |  | 8.1 |
| B3 | binds |  |  |

Source: paper doi:10.1101/847806 (bioRxiv, 2019)
